Test results: US10736933B2, “Peptide-induced NK cell activation” (priority 2015, dated 2020)

What was measured:
[1] = system: KIR2DS2-positive NK cells; assay: CD107a degranulation of NK cells from KIR2DS2-positive donors cultured with peptide-loaded L721.174 cells; format: cell-based; settings: KIR2DS2-positive donor, CH-L antibody positive NK cells, four hours, compared to no peptide
Experimental: (§1) A. cells were incubated in the presence or absence of peptides, and then cultured with NK cells from either a KIR2DS2-positive or KIR2DS2-negative donor. The level of CD107a (LAMP) expression was measured on NK cells positive for the CH-L antibody. This antibody binds to KIR2DS2, KIR2DL2 and KIR2DL3. B. Summary data from 5 KIR2DS2-positive and 6 KIR2DS2 • negative donors tested as per panel A of FIG. 2. To compare the different donors the data are normalized to 100% for the no peptide condition.
(§2) With reference to FIG. 2A, 3×10^5 L721.174 cells were incubated at 26° C. overnight in the presence or absence of peptides, and then cultured for four hours with NK cells from either a KIR2DS2-positive or KIR2DS2-negative donor. The level of CD107a (LAMP) expression was measured on NK cells positive for the CH-L antibody. This antibody binds to KIR2DS2, KIR2DL2 and KIR2DL3. […] With reference to FIG. 2B, summary data from 5 KIR2DS2-positive and 6 KIR2DS2 • negative donors were tested as per panel A of FIG. 2. To compare the different donors the data are normalized to 100% for the no peptide condition.

[2] = system: KIR2DS2-negative donor NK cells; assay: CD107a degranulation of NK cells from KIR2DS2-negative donors cultured with peptide-loaded L721.174 cells; format: cell-based; settings: CH-L antibody positive NK cells, four hours, compared to no peptide
Experimental: as §1, §2

[3] = molecular target: T1, HLA-Cw*0102 (Homo sapiens, UniProt P10321, A176E/A330V/A35S/A97T/C350S/D114A/D33F/L171W/L180R/L218V/M285V/M309V/M331V/P208H/Q277E/Q291P/R121W/R243W/R30K/S123C/S140Y/S297R/T329A/T363A/V272M/V319A); settings: control peptide, known binder; cited from earlier work
[4] = system: NKL cell line transfected with KIR2DS2; assay: Vav1 phosphorylation (pVav1 Western blot) in NKL cells transfected with KIR2DS2; format: cell-based; settings: HLA-C*0304:ICP47:721.221 cells loaded with peptide; 5 minutes
Experimental: A. L721.174 cells were incubated with indicated peptides. The cells were then incubated with the NK cell line transfected with KIR2DS2. The cells were lysed and the KIR2DS2 was then immunoprecipitated from the mixture using the GL183 antibody coupled to protein-G beads. The immune precipitate was analysed by Western blotting using a phosphotyrosine antibody. The membrane was then stripped and reprobed with an antibody to DAP12 the molecule that transduces a positive signal from KIR2DS2. Shown are the regions on the blots at the level of DAP12 (12-15 kDa). B. L721.174 cells were incubated with indicated peptides. The cells were then incubated with the NK cell line transfected with KIR2DS2 or transfected with KIR2DL2. The cells were lysed in 1% NP-40 and then analysed by Western blotting using antibodies to pVav1 and then following stripping of the membrane to Vav1. Shown are Western blots around the 98 kDa region, and below them the corresponding densitometries for 3 independent experiments.
FIG. 7 1×10^6 L721.221-HLA-C*0304-ICP47 cells were incubated overnight at 26° C. with indicated peptides at a concentration of […]. The cells were then incubated with the NKL cell line transfected with KIR2DS2 or transfected with KIR2DL2 for 5 minutes. The cells were lysed in 1% NP-40 and then analysed by Western blotting using antibodies to pVav1 and then following stripping of the membrane to Vav1. Shown are Western blots around the 98 kDa region, and below them the corresponding densitometries for 2 independent experiments.
FIG. 14—The Dengue virus peptide IVDLMCHATF (SEQ ID NO: 1) activates KIR2DS2 positive NK cells. 174 cells were incubated with the IVDLMCHATF (SEQ ID NO: 1) and then KIR2DS2-positive transfected NKL cells or KIR2DL2-positve transfected NKL cells. Activation of NK cells was assessed by western blotting for phosphorylated Vav1, and compared to total Vav1.
With reference to FIG. 6A, 1×10^6 L721.174 cells were incubated overnight at 26° C. with indicated peptides at a concentration of […]. The cells were then incubated with the NK cell line transfected with KIR2DS2 for 5 minutes. The cells were lysed in 1% digitonin buffer and the KIR2DS2 was then immunoprecipitated from the mixture using the GL183 antibody coupled to protein-G beads. The immune precipitate was analysed by Western blotting using a phosphotyrosine antibody. […] The cells were lysed in 1% NP-40 and then analysed by Western blotting using antibodies to pVav1 and then following stripping of the membrane to Vav1. […]
With reference to FIG. 7, 1×10^6 HLA-C*0304:ICP47:721.221 cells were incubated overnight at 26° C. with indicated peptides at a concentration of […]. […] The cells were lysed in 1% NP-40 and then analysed by Western blotting using antibodies to pVav1 and then following stripping of the membrane to Vav1. […]

[5] = molecular target: T2, KIR2DS2 (Homo sapiens, UniProt P43631); assay: KIR2DS2 tetramer (KIR2DS2-PE) staining of peptide-loaded L721.174 cells; format: binding; settings: L721.174 cells incubated overnight at 26° C. with peptide, flow cytometry
T2 construct: made in house
T2 sequence (P43631 22-245 limits assumed): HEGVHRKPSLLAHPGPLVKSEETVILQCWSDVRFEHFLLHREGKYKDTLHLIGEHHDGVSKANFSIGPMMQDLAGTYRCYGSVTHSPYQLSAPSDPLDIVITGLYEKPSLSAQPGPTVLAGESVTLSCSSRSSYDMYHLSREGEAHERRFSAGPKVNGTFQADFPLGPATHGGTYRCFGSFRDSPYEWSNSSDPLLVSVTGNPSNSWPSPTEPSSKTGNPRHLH
Experimental: A. The KIR2DS2 protein was expressed with a biotinylation C-terminal tag. Following biotinylation with the BirA enzyme, the KIR2DS2 protein was incubated with streptavidin-phycoerythrin to form fluorescent KIR2DS2-tetramers (KIR2DS2-PE). L721.174 cells were then incubated with indicated peptides. Cells were then stained with KIR2DS2-PE and analysed by flow cytometry. Shown are histogram plots. The bold numbers represent the mean fluorescent staining intensity of the KIR2DS2-PE staining of the cells in the presence of peptide and the non-bold numbers the staining in the absence of peptide. B. Represents the mean and standard error fluorescent intensities of the experiment in “A” following replicate experiments.
A. L721.174 cells were incubated with indicated peptides. Cells were then stained with KIR2DS2-PE (see FIG. 4) and analysed by flow cytometry. Shown are histogram plots. The bold numbers represent the mean fluorescent staining intensity of the KIR2DS2-PE staining of the cells in the presence of peptide and the non-bold numbers the staining in the absence of peptide. B. Represents the mean and standard error fluorescent intensities of the experiment in “A” following replicate experiments.
FIG. 13—KIR2DS2 tetramer staining on 174 cells with and without peptides. Peptides tested include IVDLMCHATF (SEQ ID NO: 1); VIDAMCHATL (SEQ ID NO: 2); AANVMAASL (SEQ ID NO: 3); and FLSDVPVATL (SEQ ID NO: 4). A negative control peptide VAPWNSFAL (SEQ ID NO: 12) and positive control peptide LNPSVAATL (SEQ ID NO: 5) were included. The mean fluorescence intensity of the KIR2DS2 tetramer staining is shown in the right hand corner of the graph.
With reference to FIG. 4A, the KIR2DS2 protein was expressed as a recombinant protein with a biotinylation C-terminal tag. Following biotinylation with the BirA enzyme, the KIR2DS2 protein was incubated with streptavidin-phycoerythrin to form fluorescent KIR2DS2-tetramers (KIR2DS2-PE). 3×10^5 L721.174 cells were then incubated overnight at 26° C. with indicated peptides at a concentration of […]. Cells were then stained with KIR2DS2-PE and analysed by flow cytometry. Shown are histogram plots. The bold numbers represent the mean fluorescent staining intensity of the KIR2DS2-PE staining of the cells in the presence of peptide and the non-bold numbers the staining in the absence of peptide. With reference to FIG. 4B, panel B represents the mean and standard error fluorescent intensities of the experiment in “A” following replicate experiments.
With reference to FIG. 5A, 3×10^5 L721.174 cells were incubated overnight at 26° C. with indicated peptides at a concentration of 200 μM. Cells were then stained with KIR2DS2-PE (see FIG. 4) and analysed by flow cytometry. Shown are histogram plots. The bold numbers represent the mean fluorescent staining intensity of the KIR2DS2-PE staining of the cells in the presence of peptide and the non-bold numbers the staining in the absence of peptide. With reference to FIG. 5B, panel B represents the mean and standard error fluorescent intensities of the experiment in “A” following replicate experiments.
With reference to FIG. 13, the KIR2DS2 protein was expressed as a recombinant protein with a biotinylation C-terminal tag. Following biotinylation with the BirA enzyme, the KIR2DS2 protein was incubated with streptavidin-phycoerythrin to form fluorescent KIR2DS2-tetramers (KIR2DS2-PE). […] Cells were then stained with KIR2DS2-PE and analysed by flow cytometry. […]

[6] = molecular target: T1, HLA-Cw*0102; assay: Peptide binding to HLA-Cw*0102 on L721.174 cells (cell surface MHC class I, flow cytometry); format: cell-based; settings: increasing concentrations of peptide, overnight at 26° C.
Experimental: (§3) The HLA-Cw*0102-positive cell line L721.174 was incubated with increasing concentrations of the LNPSVAATL (SEQ ID NO: 5) peptide or a control peptide VAPWNSLSL (SEQ ID NO: 11). Cells were stained for cell surface of MHC class I and analysed by flow cytometry. The mean fluorescence intensity of cell surface MHC Class I was plotted against the peptide concentration.
as §3, with “HLA-Cw*0102 • positive” for “HLA-Cw*0102-positive”, “peptides IVDLMCHATF” for “LNPSVAATL”, “1); VIDAMCHATL (SEQ ID NO: 2); AANVMAASL (SEQ ID NO: 3); and FLSDVPVATL (SEQ ID NO: 4)” for “5) peptide”, “[…].” for “VAPWNSLSL (SEQ ID NO: 11).”
3×10^5 cells were used per condition. Following washing in PBS the cells were stained for cell surface of MHC class I and analysed by flow cytometry. The mean fluorescence intensity of cell surface MHC Class I was plotted against the peptide concentration.
With reference to FIG. 12, the HLA-Cw*0102-positive cell line L721.174 was incubated with increasing concentrations of the peptides IVDLMCHATF (SEQ ID NO: 1), VIDAMCHATL (SEQ ID NO: 2), AANVMAASL (SEQ ID NO: 3); and FLSDVPVATL (SEQ ID NO: 4) overnight at 26° C. 3×10^5 cells were used per condition. Following washing in PBS the cells were stained for cell surface of MHC class I and analysed by flow cytometry. The mean fluorescence intensity of cell surface MHC Class I was plotted against the peptide concentration.

Sequence | KIR2DS2-PE tetramer binding to HLA-C*0102 and peptide [5] | binding to HLA-Cw*0102 (mean fluorescence intensity of cell surface MHC Class I) [6] | further results
VAPWNSFAL [VAP-FA, negative control peptide, reference compound] |  |  | level of CD107a (LAMP) degranulation [1]: lower levels of degranulation; level of CD107a (LAMP) degranulation [2]: lower levels of degranulation
VAPWNSLSL |  |  | binding to HLA-Cw*0102 [3]: known to bind HLA-Cw*0102
GAVPDLAWL |  |  | activation of KIR2DS2 (pVav1 vs Vav1) [4]: KIR2DS2 IS ACTIVATED
VIDAMCHATL | KIR2DS2 BINDS | bind HLA-Cw*0102 | 
FLSDVPVATL | KIR2DS2 BINDS | bind HLA-Cw*0102 | 
GAVPDLATL |  |  | activation of KIR2DS2 (pVav1 vs Vav1) [4]: KIR2DS2 IS ACTIVATED
AANVMAASL | KIR2DS2 BINDS | bind HLA-Cw*0102 | 
